Drawing on patent US20230365662A1, this text covers OD450nm and Ratio OD(Variant)/OD(WT) for 19 molecules.

Several values for one entry are separate records, joined by “and”; a condition that tells them apart may be missing. Identical values can stand only once.

B1: KB001 mouse Fab FASEBA VH S56N (Fab, V domains shown)
VH: EVQLKQSGPGLVAPSQSLSITCTVSGFSLSIYSVHWVRQPPGKGLEWLGMIWGGGNSDYNSALKSRLSISKDNSKSQVFLKMNSLQTDDTAMYYCARNGNFYAMDYWGQGTSVTVSS
VL: QIVLTQSPAIMSASLGERVTMTCTASSSVSSSFLHWYQQKPGSSPQLWIYSTSNLASGVPARFSGSGSGTSYSLTISSMEAEDAATYYCHQYHHSPYIYTFGGGTKLEIK
B2: KB001 mouse Fab FASEBA VH Y59F (Fab, V domains shown)
VH: EVQLKQSGPGLVAPSQSLSITCTVSGFSLSIYSVHWVRQPPGKGLEWLGMIWGGGSSDFNSALKSRLSISKDNSKSQVFLKMNSLQTDDTAMYYCARNGNFYAMDYWGQGTSVTVSS
VL: QIVLTQSPAIMSASLGERVTMTCTASSSVSSSFLHWYQQKPGSSPQLWIYSTSNLASGVPARFSGSGSGTSYSLTISSMEAEDAATYYCHQYHHSPYIYTFGGGTKLEIK
B3: KB001 mouse Fab FASEBA VH D58S (Fab, V domains shown)
VH: EVQLKQSGPGLVAPSQSLSITCTVSGFSLSIYSVHWVRQPPGKGLEWLGMIWGGGSSSYNSALKSRLSISKDNSKSQVFLKMNSLQTDDTAMYYCARNGNFYAMDYWGQGTSVTVSS
VL: QIVLTQSPAIMSASLGERVTMTCTASSSVSSSFLHWYQQKPGSSPQLWIYSTSNLASGVPARFSGSGSGTSYSLTISSMEAEDAATYYCHQYHHSPYIYTFGGGTKLEIK
B4: KB001 mouse Fab FASEBA VH S57H (Fab, V domains shown)
VH: EVQLKQSGPGLVAPSQSLSITCTVSGFSLSIYSVHWVRQPPGKGLEWLGMIWGGGSHDYNSALKSRLSISKDNSKSQVFLKMNSLQTDDTAMYYCARNGNFYAMDYWGQGTSVTVSS
VL: QIVLTQSPAIMSASLGERVTMTCTASSSVSSSFLHWYQQKPGSSPQLWIYSTSNLASGVPARFSGSGSGTSYSLTISSMEAEDAATYYCHQYHHSPYIYTFGGGTKLEIK
B5: KB001 mouse Fab FASEBA VH S57R (Fab, V domains shown)
VH: EVQLKQSGPGLVAPSQSLSITCTVSGFSLSIYSVHWVRQPPGKGLEWLGMIWGGGSRDYNSALKSRLSISKDNSKSQVFLKMNSLQTDDTAMYYCARNGNFYAMDYWGQGTSVTVSS
VL: QIVLTQSPAIMSASLGERVTMTCTASSSVSSSFLHWYQQKPGSSPQLWIYSTSNLASGVPARFSGSGSGTSYSLTISSMEAEDAATYYCHQYHHSPYIYTFGGGTKLEIK
B6: KB001 mouse Fab FASEBA VH Y59R (Fab, V domains shown)
VH: EVQLKQSGPGLVAPSQSLSITCTVSGFSLSIYSVHWVRQPPGKGLEWLGMIWGGGSSDRNSALKSRLSISKDNSKSQVFLKMNSLQTDDTAMYYCARNGNFYAMDYWGQGTSVTVSS
VL: QIVLTQSPAIMSASLGERVTMTCTASSSVSSSFLHWYQQKPGSSPQLWIYSTSNLASGVPARFSGSGSGTSYSLTISSMEAEDAATYYCHQYHHSPYIYTFGGGTKLEIK
B7: KB001 mouse Fab FASEBA VH Y59M/S571 (Fab, V domains shown)
VH: EVQLKQSGPGLVAPSQSLSITCTVSGFSLSIYSVHWVRQPPGKGLEWLGMIWGGGSIDMNSALKSRLSISKDNSKSQVFLKMNSLQTDDTAMYYCARNGNFYAMDYWGQGTSVTVSS
VL: QIVLTQSPAIMSASLGERVTMTCTASSSVSSSFLHWYQQKPGSSPQLWIYSTSNLASGVPARFSGSGSGTSYSLTISSMEAEDAATYYCHQYHHSPYIYTFGGGTKLEIK
B8: KB001 mouse Fab FASEBA VH S56L (Fab, V domains shown)
VH: EVQLKQSGPGLVAPSQSLSITCTVSGFSLSIYSVHWVRQPPGKGLEWLGMIWGGGLSDYNSALKSRLSISKDNSKSQVFLKMNSLQTDDTAMYYCARNGNFYAMDYWGQGTSVTVSS
VL: QIVLTQSPAIMSASLGERVTMTCTASSSVSSSFLHWYQQKPGSSPQLWIYSTSNLASGVPARFSGSGSGTSYSLTISSMEAEDAATYYCHQYHHSPYIYTFGGGTKLEIK
B9: KB001 mouse Fab FASEBA VH Y59K (Fab, V domains shown)
VH: EVQLKQSGPGLVAPSQSLSITCTVSGFSLSIYSVHWVRQPPGKGLEWLGMIWGGGSSDKNSALKSRLSISKDNSKSQVFLKMNSLQTDDTAMYYCARNGNFYAMDYWGQGTSVTVSS
VL: QIVLTQSPAIMSASLGERVTMTCTASSSVSSSFLHWYQQKPGSSPQLWIYSTSNLASGVPARFSGSGSGTSYSLTISSMEAEDAATYYCHQYHHSPYIYTFGGGTKLEIK
B10: KB001 mouse Fab FASEBA VH N60T (Fab, V domains shown)
VH: EVQLKQSGPGLVAPSQSLSITCTVSGFSLSIYSVHWVRQPPGKGLEWLGMIWGGGSSDYTSALKSRLSISKDNSKSQVFLKMNSLQTDDTAMYYCARNGNFYAMDYWGQGTSVTVSS
VL: QIVLTQSPAIMSASLGERVTMTCTASSSVSSSFLHWYQQKPGSSPQLWIYSTSNLASGVPARFSGSGSGTSYSLTISSMEAEDAATYYCHQYHHSPYIYTFGGGTKLEIK
B11: KB001 mouse Fab FASEBA VH D58G (Fab, V domains shown)
VH: EVQLKQSGPGLVAPSQSLSITCTVSGFSLSIYSVHWVRQPPGKGLEWLGMIWGGGSSGYNSALKSRLSISKDNSKSQVFLKMNSLQTDDTAMYYCARNGNFYAMDYWGQGTSVTVSS
VL: QIVLTQSPAIMSASLGERVTMTCTASSSVSSSFLHWYQQKPGSSPQLWIYSTSNLASGVPARFSGSGSGTSYSLTISSMEAEDAATYYCHQYHHSPYIYTFGGGTKLEIK
B12: KB001 mouse Fab FASEBA VH N60S (Fab, V domains shown)
VH: EVQLKQSGPGLVAPSQSLSITCTVSGFSLSIYSVHWVRQPPGKGLEWLGMIWGGGSSDYSSALKSRLSISKDNSKSQVFLKMNSLQTDDTAMYYCARNGNFYAMDYWGQGTSVTVSS
VL: QIVLTQSPAIMSASLGERVTMTCTASSSVSSSFLHWYQQKPGSSPQLWIYSTSNLASGVPARFSGSGSGTSYSLTISSMEAEDAATYYCHQYHHSPYIYTFGGGTKLEIK
B13: KB001 mouse Fab FASEBA VH S57T (Fab, V domains shown)
VH: EVQLKQSGPGLVAPSQSLSITCTVSGFSLSIYSVHWVRQPPGKGLEWLGMIWGGGSTDYNSALKSRLSISKDNSKSQVFLKMNSLQTDDTAMYYCARNGNFYAMDYWGQGTSVTVSS
VL: QIVLTQSPAIMSASLGERVTMTCTASSSVSSSFLHWYQQKPGSSPQLWIYSTSNLASGVPARFSGSGSGTSYSLTISSMEAEDAATYYCHQYHHSPYIYTFGGGTKLEIK
B14: KB001 mouse Fab FASEBA VH S57M (Fab, V domains shown)
VH: EVQLKQSGPGLVAPSQSLSITCTVSGFSLSIYSVHWVRQPPGKGLEWLGMIWGGGSMDYNSALKSRLSISKDNSKSQVFLKMNSLQTDDTAMYYCARNGNFYAMDYWGQGTSVTVSS
VL: QIVLTQSPAIMSASLGERVTMTCTASSSVSSSFLHWYQQKPGSSPQLWIYSTSNLASGVPARFSGSGSGTSYSLTISSMEAEDAATYYCHQYHHSPYIYTFGGGTKLEIK
B15: KB001 mouse Fab FASEBA VH N60P (Fab, V domains shown)
VH: EVQLKQSGPGLVAPSQSLSITCTVSGFSLSIYSVHWVRQPPGKGLEWLGMIWGGGSSDYPSALKSRLSISKDNSKSQVFLKMNSLQTDDTAMYYCARNGNFYAMDYWGQGTSVTVSS
VL: QIVLTQSPAIMSASLGERVTMTCTASSSVSSSFLHWYQQKPGSSPQLWIYSTSNLASGVPARFSGSGSGTSYSLTISSMEAEDAATYYCHQYHHSPYIYTFGGGTKLEIK
B16: KB001 mouse Fab FASEBA VH S61W (Fab, V domains shown)
VH: EVQLKQSGPGLVAPSQSLSITCTVSGFSLSIYSVHWVRQPPGKGLEWLGMIWGGGSSDYNWALKSRLSISKDNSKSQVFLKMNSLQTDDTAMYYCARNGNFYAMDYWGQGTSVTVSS
VL: QIVLTQSPAIMSASLGERVTMTCTASSSVSSSFLHWYQQKPGSSPQLWIYSTSNLASGVPARFSGSGSGTSYSLTISSMEAEDAATYYCHQYHHSPYIYTFGGGTKLEIK
B17: KB001 mouse Fab FASEBA VH N60Q (Fab, V domains shown)
VH: EVQLKQSGPGLVAPSQSLSITCTVSGFSLSIYSVHWVRQPPGKGLEWLGMIWGGGSSDYQSALKSRLSISKDNSKSQVFLKMNSLQTDDTAMYYCARNGNFYAMDYWGQGTSVTVSS
VL: QIVLTQSPAIMSASLGERVTMTCTASSSVSSSFLHWYQQKPGSSPQLWIYSTSNLASGVPARFSGSGSGTSYSLTISSMEAEDAATYYCHQYHHSPYIYTFGGGTKLEIK
B18: KB001 mouse Fab FASEBA VH S56M (Fab, V domains shown)
VH: EVQLKQSGPGLVAPSQSLSITCTVSGFSLSIYSVHWVRQPPGKGLEWLGMIWGGGMSDYNSALKSRLSISKDNSKSQVFLKMNSLQTDDTAMYYCARNGNFYAMDYWGQGTSVTVSS
VL: QIVLTQSPAIMSASLGERVTMTCTASSSVSSSFLHWYQQKPGSSPQLWIYSTSNLASGVPARFSGSGSGTSYSLTISSMEAEDAATYYCHQYHHSPYIYTFGGGTKLEIK
B19: KB001 mouse Fab FASEBA VH Y59T (Fab, V domains shown)
VH: EVQLKQSGPGLVAPSQSLSITCTVSGFSLSIYSVHWVRQPPGKGLEWLGMIWGGGSSDTNSALKSRLSISKDNSKSQVFLKMNSLQTDDTAMYYCARNGNFYAMDYWGQGTSVTVSS
VL: QIVLTQSPAIMSASLGERVTMTCTASSSVSSSFLHWYQQKPGSSPQLWIYSTSNLASGVPARFSGSGSGTSYSLTISSMEAEDAATYYCHQYHHSPYIYTFGGGTKLEIK

In this experiment the target is HRgpA-6H (Porphyromonas gingivalis) (UniProt P28784). The experiment is described as follows: ELISA on coated HRgpA-6H. In general terms: In an ELISA, binding on a coated surface is turned into a signal by an enzyme label.
Chain of UniProt P28784 (P28784 228-991 limits assumed): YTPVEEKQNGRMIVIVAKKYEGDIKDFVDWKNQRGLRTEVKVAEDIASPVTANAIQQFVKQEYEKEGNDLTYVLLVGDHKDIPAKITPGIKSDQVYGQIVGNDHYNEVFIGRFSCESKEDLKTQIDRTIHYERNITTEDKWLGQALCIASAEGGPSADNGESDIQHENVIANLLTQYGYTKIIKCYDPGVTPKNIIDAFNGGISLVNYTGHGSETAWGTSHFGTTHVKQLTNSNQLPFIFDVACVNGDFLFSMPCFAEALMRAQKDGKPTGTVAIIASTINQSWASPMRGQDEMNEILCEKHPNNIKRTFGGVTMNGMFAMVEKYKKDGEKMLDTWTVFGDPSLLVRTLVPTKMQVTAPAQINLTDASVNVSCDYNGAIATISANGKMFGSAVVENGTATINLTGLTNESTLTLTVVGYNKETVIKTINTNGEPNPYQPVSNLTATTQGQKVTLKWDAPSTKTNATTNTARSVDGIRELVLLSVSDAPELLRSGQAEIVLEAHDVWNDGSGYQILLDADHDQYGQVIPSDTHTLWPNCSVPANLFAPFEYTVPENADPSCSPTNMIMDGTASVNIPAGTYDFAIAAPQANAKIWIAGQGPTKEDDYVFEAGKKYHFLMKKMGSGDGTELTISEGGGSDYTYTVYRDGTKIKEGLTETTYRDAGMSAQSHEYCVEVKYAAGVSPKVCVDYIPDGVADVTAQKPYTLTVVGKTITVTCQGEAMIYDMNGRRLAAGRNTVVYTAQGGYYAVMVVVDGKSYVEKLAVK
Take B1: the OD450nm was 0.759 and 0.743; the Ratio OD(Variant)/OD(WT) was 0.863 and 0.845.
B2: the OD450nm was found to be 0.668 and the Ratio OD(Variant)/OD(WT) is 0.845.
B3: the OD450nm is 0.646 and the Ratio OD(Variant)/OD(WT) was determined as 0.817.
Consider B4, for which the OD450nm worked out at 0.8 and the Ratio OD(Variant)/OD(WT) worked out at 0.91.
As to B5, the OD450nm was found to be 0.796 and the Ratio OD(Variant)/OD(WT) amounted to 0.905.
On to B6, for which the OD450nm came to 0.633 and the Ratio OD(Variant)/OD(WT) came out at 0.8.
B7: the OD450nm is 0.701 and the Ratio OD(Variant)/OD(WT) is 0.886.
As for B8, the OD450nm was 0.71 and the Ratio OD(Variant)/OD(WT) came to 0.807.
In the case of B9, the OD450nm is 0.648 and the Ratio OD(Variant)/OD(WT) was found to be 0.819.
Regarding B10, the OD450nm was found to be 0.406 and the Ratio OD(Variant)/OD(WT) is 0.823.
For B11 the same measures were 0.778 and 0.984.
Take B12: the OD450nm came to 0.452 and the Ratio OD(Variant)/OD(WT) is 0.916.
B13: the OD450nm was 0.843 and 0.849; the Ratio OD(Variant)/OD(WT) was 0.958 and 0.965.
For B14, the OD450nm is 0.748 and the Ratio OD(Variant)/OD(WT) came out at 0.85.
B15: the OD450nm is 0.44 and 0.428; the Ratio OD(Variant)/OD(WT) is 0.892 and 0.867.
Consider B16, for which the OD450nm was 0.435 and 0.429; the Ratio OD(Variant)/OD(WT) is 0.881 and 0.869.
Turning to B17, the OD450nm is 0.447 and 0.402; the Ratio OD(Variant)/OD(WT) was 0.906 and 0.815.
Regarding B18, the OD450nm is 0.809 and the Ratio OD(Variant)/OD(WT) was 0.92.
For B19, the OD450nm came to 0.744 and the Ratio OD(Variant)/OD(WT) is 0.941.
